What follows are sequences tested on Escherichia coli TOP10 (assay: shrunken log2 fold change of peptide-encoding DNA abundance (4.5 h post-induction vs induction); higher = less antimicrobial activity (less host growth inhibition)). Settings: time post-induction: 4.5 h; library: site-saturation at positions 5, 18, 19, 20.
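Also: peptides expressed intracellularly from a pBAD plasmid library in pooled LB shake-flask culture, induced with 0.3% L-arabinose, DNA abundance read by NGS, three biological replicates, DESeq2 with apeglm shrinkage.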

| Sequence | shrunken log2 fold change |
| --- | --- |
| RRIRARPPRLPRPRPRPHVVPRP | -0.288 |
| RRIRYRPPRLPRPRPRPTDMPRP | 0.00219 |
| RRIRERPPRLPRPRPRPWVCPRP | 0.0297 |
| RRIRPRPPRLPRPRPRPWVVPRP | 0.0434 |
| RRIRIRPPRLPRPRPRPWAEPRP | -0.167 |
| RRIRMRPPRLPRPRPRPGENPRP | 0.00897 |
| RRIRDRPPRLPRPRPRPAFVPRP | -0.114 |
| RRIRRRPPRLPRPRPRPRAIPRP | 0.405 |
| RRIRFRPPRLPRPRPRPAQVPRP | -0.0516 |
| RRIRWRPPRLPRPRPRPQRNPRP | 0.0121 |
| RRIRLRPPRLPRPRPRPSCTPRP | -0.501 |
| RRIRARPPRLPRPRPRPDMPPRP | 0.0755 |
| RRIRARPPRLPRPRPRPNWYPRP | -0.245 |
| RRIRYRPPRLPRPRPRPALNPRP | -0.541 |
| RRIRNRPPRLPRPRPRPMNNPRP | -0.749 |
| RRIRTRPPRLPRPRPRPPWQPRP | 0.698 |
| RRIRTRPPRLPRPRPRPHYLPRP | -0.194 |
| RRIRIRPPRLPRPRPRPMREPRP | 0.0761 |
| RRIRDRPPRLPRPRPRPFCCPRP | 0.26 |
| RRIRTRPPRLPRPRPRPTLLPRP | 0.0818 |
| RRIRSRPPRLPRPRPRPRQFPRP | 0.165 |
| RRIRERPPRLPRPRPRPVTEPRP | -0.255 |

| Sequence | shrunken log2 fold change |
| --- | --- |
| RRIRSRPPRLPRPRPRPMCQPRP | -0.0136 |
| RRIRSRPPRLPRPRPRPTNVPRP | -0.358 |
| RRIRYRPPRLPRPRPRPRQRPRP | 0.194 |
| RRIRDRPPRLPRPRPRPWISPRP | -0.00776 |
| RRIRCRPPRLPRPRPRPIEDPRP | 0.102 |
| RRIRNRPPRLPRPRPRPNQCPRP | -0.136 |
| RRIRGRPPRLPRPRPRPPPAPRP | 1.57 |
| RRIRNRPPRLPRPRPRPIMEPRP | -0.139 |
| RRIRTRPPRLPRPRPRPRDRPRP | 0.19 |
| RRIRDRPPRLPRPRPRPTWCPRP | 0.18 |
| RRIRWRPPRLPRPRPRPKCIPRP | -0.217 |
| RRIRHRPPRLPRPRPRPYWYPRP | -1.25 |
| RRIRQRPPRLPRPRPRPIKQPRP | 0.00621 |
| RRIRFRPPRLPRPRPRPKVQPRP | 0.199 |
| RRIRRRPPRLPRPRPRPPRCPRP | 1.49 |
| RRIRVRPPRLPRPRPRPSKKPRP | -0.0165 |
| RRIRCRPPRLPRPRPRPSANPRP | 0.0237 |
| RRIRCRPPRLPRPRPRPMEFPRP | -0.0158 |
| RRIRKRPPRLPRPRPRPELGPRP | 0.823 |
| RRIRNRPPRLPRPRPRPCQKPRP | 0.00489 |
| RRIRDRPPRLPRPRPRPHLKPRP | 0.143 |
| RRIRQRPPRLPRPRPRPGFLPRP | 0.107 |

| Sequence | shrunken log2 fold change |
| --- | --- |
| RRIRHRPPRLPRPRPRPRFHPRP | -0.162 |
| RRIRMRPPRLPRPRPRPSHGPRP | 0.385 |
| RRIRSRPPRLPRPRPRPSQTPRP | -0.128 |
| RRIRRRPPRLPRPRPRPRISPRP | 0.482 |
| RRIRDRPPRLPRPRPRPYCIPRP | -0.205 |
| RRIRMRPPRLPRPRPRPNWVPRP | -0.0816 |
| RRIRTRPPRLPRPRPRPLWGPRP | -0.0731 |
| RRIRMRPPRLPRPRPRPLNLPRP | -0.0841 |
| RRIRPRPPRLPRPRPRPCHMPRP | -0.0442 |
| RRIRQRPPRLPRPRPRPKAYPRP | 0.0697 |
| RRIRTRPPRLPRPRPRPIMNPRP | 0.0436 |
| RRIRQRPPRLPRPRPRPDCNPRP | 0.167 |
| RRIRPRPPRLPRPRPRPTSMPRP | -0.0129 |
| RRIRWRPPRLPRPRPRPQMHPRP | 0.0794 |
| RRIRWRPPRLPRPRPRPQTFPRP | -0.293 |
| RRIRDRPPRLPRPRPRPRQAPRP | 0.102 |
| RRIRYRPPRLPRPRPRPDALPRP | -0.212 |
| RRIRIRPPRLPRPRPRPHFFPRP | -0.237 |
| RRIRKRPPRLPRPRPRPYGLPRP | 0.0165 |
| RRIRRRPPRLPRPRPRPAYPPRP | 0.0273 |
| RRIRNRPPRLPRPRPRPCVGPRP | -0.129 |
| RRIRSRPPRLPRPRPRPRQQPRP | 0.0352 |

| Sequence | shrunken log2 fold change |
| --- | --- |
| RRIRHRPPRLPRPRPRPHKCPRP | -0.11 |
| RRIRARPPRLPRPRPRPGRTPRP | 0.683 |
| RRIRLRPPRLPRPRPRPMTFPRP | -0.263 |
| RRIRRRPPRLPRPRPRPEVKPRP | 0.418 |
| RRIRPRPPRLPRPRPRPAHHPRP | 0.207 |
| RRIRYRPPRLPRPRPRPKFDPRP | -0.138 |
| RRIRSRPPRLPRPRPRPNCKPRP | -0.228 |
| RRIRGRPPRLPRPRPRPWYCPRP | -0.408 |
| RRIRKRPPRLPRPRPRPAEQPRP | 0.452 |
| RRIRTRPPRLPRPRPRPNRPPRP | 0.00512 |
| RRIRDRPPRLPRPRPRPGWNPRP | 0.69 |
| RRIRCRPPRLPRPRPRPIAQPRP | 0.00422 |
| RRIRKRPPRLPRPRPRPAGEPRP | 0.0321 |
| RRIRSRPPRLPRPRPRPQCYPRP | -0.569 |
| RRIRGRPPRLPRPRPRPMANPRP | 0.057 |
| RRIRARPPRLPRPRPRPHNLPRP | -0.201 |
| RRIRDRPPRLPRPRPRPPFKPRP | 0.18 |
| RRIRTRPPRLPRPRPRPAPMPRP | 0.202 |
| RRIRSRPPRLPRPRPRPWCPPRP | -0.549 |
| RRIRIRPPRLPRPRPRPPYFPRP | -0.25 |
| RRIRIRPPRLPRPRPRPTRCPRP | 0.33 |
| RRIRQRPPRLPRPRPRPMVIPRP | -0.105 |

| Sequence | shrunken log2 fold change |
| --- | --- |
| RRIRCRPPRLPRPRPRPFTYPRP | -0.631 |
| RRIRERPPRLPRPRPRPNEFPRP | -0.0497 |
| RRIRQRPPRLPRPRPRPSKYPRP | -0.0779 |
| RRIRVRPPRLPRPRPRPYAFPRP | -0.0621 |
| RRIRYRPPRLPRPRPRPWYCPRP | -1.12 |
| RRIRCRPPRLPRPRPRPFPVPRP | 0.11 |
| RRIRLRPPRLPRPRPRPPQPPRP | 0.816 |
| RRIRFRPPRLPRPRPRPCTYPRP | -0.384 |
| RRIRHRPPRLPRPRPRPWGCPRP | -0.106 |
| RRIRHRPPRLPRPRPRPLMWPRP | -0.218 |
| RRIRVRPPRLPRPRPRPDYHPRP | -0.558 |
| RRIRLRPPRLPRPRPRPHERPRP | 0.274 |
| RRIRNRPPRLPRPRPRPCKEPRP | -0.451 |
| RRIRWRPPRLPRPRPRPPTGPRP | 0.23 |
| RRIRIRPPRLPRPRPRPLTKPRP | -0.94 |
| RRIRRRPPRLPRPRPRPTVDPRP | 0.615 |
| RRIRVRPPRLPRPRPRPMMPPRP | -0.302 |
| RRIRNRPPRLPRPRPRPTAQPRP | 0.136 |
| RRIRNRPPRLPRPRPRPAPNPRP | -0.0796 |
| RRIRLRPPRLPRPRPRPEDLPRP | 0.14 |
| RRIRRRPPRLPRPRPRPRKIPRP | 0.405 |
